Numbering of substitutions follows the chain as printed.

This note sets out measurements from US20240101675A1 (BIOLOJIC DESIGN, published 2024).

In assay [1] the target is T1, recombinant human IL-13 (human, UniProt P35225 35-146). The assay is described as follows: cell-based or functional assay.
The target of assay [2] is T2, hTSLP-His (ACRO biosystems cat: TSP-H52Hb) (human, UniProt Q969D9 29-159, limits assumed). Description: cell-based or functional assay.
Assay [3] concerns the target T3, human TSLP (human, UniProt Q969D9 29-159).
T3 construct: also called hTSLP; h-TSLP
The assay is described as follows: ELISA, ligand coated, IgG titrated 1 to 1000 nM.

Assay [4] concerns the target T4, recombinant cynomolgus monkey IL-13 (cynomolgus monkey, UniProt Q0PW92 21-132).
T4 construct: also called rc-IL-13; cIL-13
The assay is described as follows: ELISA, ligand coated, IgG titrated 1 to 1000 nM. In general terms: An ELISA detects its analyte on a solid surface through an enzyme-linked reagent.

For assay [5], the target named is T5, cynomolgus monkey TSLP (cynomolgus monkey, UniProt A0A7N9CAT7 29-159).
T5 construct: also called cTSLP; cyno-TSLP
Description: ELISA, ligand coated, IgG titrated 1 to 1000 nM.

Assay [6] has as its target T1, recombinant human IL-13. Description: SPR (BIAcore T200), IgG captured, hIL-13 as analyte 20 to 0.6 nM. In general terms: In SPR one partner is held on a chip, and binding of the other changes the refractive index at the surface.
The target of assay [7] is T2, hTSLP-His (ACRO biosystems cat: …). The assay is described as follows: competition ELISA: 3 nM hTSLP-His pre-mixed with IgG, plate coated with TSLP-R-Fc.
Assay [8] has as its target T6, IL-4 (Homo sapiens (Human), UniProt P05112 25-153).
T6 sequence: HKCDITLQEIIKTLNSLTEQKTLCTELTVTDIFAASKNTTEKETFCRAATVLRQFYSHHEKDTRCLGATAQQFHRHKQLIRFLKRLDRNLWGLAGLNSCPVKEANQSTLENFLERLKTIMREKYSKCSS
Description: specificity ELISA: plate coated with 250 ng ligand, 100 nM IgG, anti-human Fc-HRP.

Assay [9] has as its target T7, IL-2 (specificity ELISA of Example 6) (Homo sapiens (Human), UniProt P60568 21-153). The description is as above.
For assay [10], the target named is BSA (UniProt P02769 25-607). The description is as above.
Assay [11] addresses T7, IL-2 (specificity ELISA of Example 6). Description: specificity ELISA, ligand coated.
The target in assay [12] is T1, recombinant human IL-13. The assay is described as follows: cell-based or functional assay. The source holds these as a separate data set.
The target of assay [13] is T8, recombinant human PD-1 tagged with histidine tag (hPD-1-His) (human, UniProt Q15116 25-167, limits assumed).
T8 construct: bought (Reprokine); not shown: histidine tag
Description: yeast surface display scFv, flow cytometry, 30 nM hPD-1-His.

Assay [14] has as its target T9, recombinant human OX40 tagged with histidine tag (hOX40-His) (human, UniProt P43489 29-216).
T9 construct: bought (Reprokine); also called hOX-His; not shown: histidine tag
T9 sequence (looked up): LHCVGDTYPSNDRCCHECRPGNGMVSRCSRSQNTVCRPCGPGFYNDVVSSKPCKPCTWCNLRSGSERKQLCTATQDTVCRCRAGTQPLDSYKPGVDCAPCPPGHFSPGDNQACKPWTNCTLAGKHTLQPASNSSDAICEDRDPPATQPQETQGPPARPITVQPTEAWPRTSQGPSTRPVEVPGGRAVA
Description: yeast surface display scFv, flow cytometry, 90 nM hOX40-His.

Assay [15] addresses T2, hTSLP-His (ACRO biosystems cat: …). The assay is described as follows: competition ELISA: hTSLP-His pre-mixed with soluble TSLP-R as competitor, plate coated with TSLP-R-Fc.
For assay [16] the target is unchanged. The assay is described as follows: blocking ELISA: competitor mixed with 3 nM hTSLP-His, then on a plate coated with TSLP-R-Fc; bound hTSLP-His by anti-His-HRP.

T1 sequence (P35225 35-146 limits assumed): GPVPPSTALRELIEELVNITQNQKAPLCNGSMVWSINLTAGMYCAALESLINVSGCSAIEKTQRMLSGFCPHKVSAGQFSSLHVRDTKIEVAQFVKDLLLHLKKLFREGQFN
Chain of BSA (P02769 25-607 limits assumed): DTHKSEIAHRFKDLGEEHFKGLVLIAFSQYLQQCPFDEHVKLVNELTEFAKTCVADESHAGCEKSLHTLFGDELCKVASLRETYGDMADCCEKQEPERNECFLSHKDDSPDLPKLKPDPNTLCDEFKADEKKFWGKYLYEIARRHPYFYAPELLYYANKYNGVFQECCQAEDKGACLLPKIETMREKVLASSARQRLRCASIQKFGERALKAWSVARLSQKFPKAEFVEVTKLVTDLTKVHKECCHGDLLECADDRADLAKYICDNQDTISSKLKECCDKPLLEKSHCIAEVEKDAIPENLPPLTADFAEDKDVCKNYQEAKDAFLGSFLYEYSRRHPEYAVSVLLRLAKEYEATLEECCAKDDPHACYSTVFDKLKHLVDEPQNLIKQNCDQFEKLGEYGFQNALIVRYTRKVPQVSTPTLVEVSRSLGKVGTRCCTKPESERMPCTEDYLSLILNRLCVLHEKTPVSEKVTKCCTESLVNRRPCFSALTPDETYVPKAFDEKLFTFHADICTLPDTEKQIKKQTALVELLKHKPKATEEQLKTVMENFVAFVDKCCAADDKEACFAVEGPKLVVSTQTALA
T7 sequence (P60568 21-153 limits assumed): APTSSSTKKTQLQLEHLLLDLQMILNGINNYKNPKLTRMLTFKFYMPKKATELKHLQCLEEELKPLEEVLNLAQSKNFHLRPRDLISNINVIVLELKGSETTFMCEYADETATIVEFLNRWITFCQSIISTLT
T4 sequence (Q0PW92 entry or part of it): as the sequence (P35225 35-146 limits assumed) above, with G1S, R10K, M42V, S67N, H83R, L100V counted along it
T5 sequence (A0A7N9CAT7 entry or part of it): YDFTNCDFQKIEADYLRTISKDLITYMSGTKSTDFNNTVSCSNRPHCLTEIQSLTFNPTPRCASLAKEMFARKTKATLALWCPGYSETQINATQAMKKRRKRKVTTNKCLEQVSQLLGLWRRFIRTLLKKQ
T8 sequence (Q15116 25-167 limits assumed): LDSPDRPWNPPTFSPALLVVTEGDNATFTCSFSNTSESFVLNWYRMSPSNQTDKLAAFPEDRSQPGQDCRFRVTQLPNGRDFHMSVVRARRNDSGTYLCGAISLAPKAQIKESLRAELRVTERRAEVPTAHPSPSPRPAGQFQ

B1: BDG33.023 (antibody, human IgG1, V domains shown)
VH: QMQLVESGGGVVQPGRSLRLSCAASGFAFRTYGMHWVRQAPGKGLEWVAVIWYDGSNTHYADSVKGRFTITRDNSKNTLNLQMNSLRAEDTAVYYCARAPQWYLSAEAFDLWGQGTMVTVSS
VL: SYVLTQPPSVSVAPGQTARITCGGNLIGSKLVHWYQQKPGQAPVLVVYDDSDRPSRIPERFSGSNSGNTATLTISRVEAGDEADYYCQVWDHSSDHVVFGGGTKLTVL
notes: IgG (human IgG1 format, symmetrical IgG); also called BGD33.023; BGD33.0023
In the case of B1, in assay [1], the “IC50, inhibition of IL-13 signaling cascade in HEK-Blue IL-4/IL-13 cells” value was 1.3 nM. In addition, the “IC50, inhibition of TSLP dependent pSTAT5 activation in MUTZ5 cells” value in [2] was determined as 13 pM. Further, the EC50 in assay [3] was 2.5 nM; in [4], 7.1 nM; in [5], 8.2 nM. In addition, the Kd in [6] worked out at 3.65 nM. Further, in [6], the koff turned out to be 0.0157 s⁻¹. Also, in [6], the kon came out at 4.31e+06 M⁻¹ s⁻¹. This molecule gave an IC50 in [7] of 0.41 nM. For the same molecule, the binding result in assay [8], in assay [9] and in assay [10] was “no binding (tested: 100 nM IgG (not on the sheet))” in each case.

B2: BDG33.025 (antibody, human IgG1, V domains shown)
VH: B1 VH with A28T, V50D, T58K, S105V, A108P
VL: B1 VL with R56L, H92S, H96G
notes: IgG (human IgG1 format, symmetrical IgG); also called BGD33.025; BDG33.0025
Regarding B2, in assay [1], the “IC50, inhibition of IL-13 signaling cascade in HEK-Blue IL-4/IL-13 cells” value was found to be 25 nM. The binding result in [11] is “no binding (tested: 100 nM IgG)”; in [10], “no binding (tested: 100 nM IgG (not on the sheet))”. In assay [12], the “IC50 (read off the curve); HEK-Blue IL-4/IL-13 STAT6-SEAP reporter with 0.4 nM rh-IL-13, OD 620” value is around 20 nM. The EC50 stood at 12.8 nM in assay [3], 1.5 nM in assay [4] and 148 nM in assay [5]. In addition, the Kd in assay [6] came out at 0.903 nM. The koff in [6] is 0.0036 s⁻¹. In addition, the kon in assay [6] was found to be 4.07e+06 M⁻¹ s⁻¹.

B3: 3212ACOXC81 (OX40 library) (scFv, V domains shown)
VH: QVQLVESGGGVVQPGRSLRLDCKASGIDFSNSGMHWVRQAPGKGLEWVAVIWYDGSTRYYADSVKGRFTISRDNSKNTLFLQMNSLRAEDTAVYYCATNDDYWGQGTLVTVSS
VL: EIVLTQSPATLSLSPGERATLSCRASQSVIHYLAWYQQKPGQAPRLLIYDASNRATGIPARFSGSGSGTDFTLTISSLEPEDFAVYYCQQYDNWPLTFGQGTKVEIK
notes: not shown: linker
For B3, the binding result in assay [13] and in [14] was “binds” in each case.

B4: TSLP-R-Fc tag (ACRO biosystems TSR-H525a) (Fc fusion, UniProt Q9HC73 23-231, looked up)
chain: QGGAAEGVQIQIIYFNLETVQVTWNASKYSRTNLTFHYRFNGDEAYDQCTNYLLQEGHTSGCLLDAEQRDDILYFSIRNGTHPVFTASRWMVYYLKPSSPKHVRFSWHQDAVTVTCSDLSYGDLLYEVQYRSPFDTEWQSKQENTCNVTIEGLDAEKCYSFWVRVKAMEDVYGPDTYPSDWSEVTCWQRGEIRDACAETPTPPKPKLSK
notes: bought; also called TSLP receptor; not shown: Fc tag
In [15], B4 yielded an IC50 of 3 nM. Moreover, the “IC50 (read off the curve)” value in [16] was around 3 nM.

The term EC50 denotes the concentration that produces a half-maximal response. Usually Kd stands for the concentration at which binding is half-saturated. By koff is commonly meant the rate constant with which the complex falls apart. For orientation: kon means the second-order rate constant of association. The IC50 is the midpoint of a concentration-inhibition curve.
